The text below walks through data of doi:10.1101/2020.02.11.943977.

This data set addresses Replication protein A (RPA heterotrimer) (human) (UniProt P27694+P15927+P35244). Nature of the data set: competition.

Replication protein A (RPA heterotrimer) (human), sequence (P27694 whole entry, chain 1 of 3): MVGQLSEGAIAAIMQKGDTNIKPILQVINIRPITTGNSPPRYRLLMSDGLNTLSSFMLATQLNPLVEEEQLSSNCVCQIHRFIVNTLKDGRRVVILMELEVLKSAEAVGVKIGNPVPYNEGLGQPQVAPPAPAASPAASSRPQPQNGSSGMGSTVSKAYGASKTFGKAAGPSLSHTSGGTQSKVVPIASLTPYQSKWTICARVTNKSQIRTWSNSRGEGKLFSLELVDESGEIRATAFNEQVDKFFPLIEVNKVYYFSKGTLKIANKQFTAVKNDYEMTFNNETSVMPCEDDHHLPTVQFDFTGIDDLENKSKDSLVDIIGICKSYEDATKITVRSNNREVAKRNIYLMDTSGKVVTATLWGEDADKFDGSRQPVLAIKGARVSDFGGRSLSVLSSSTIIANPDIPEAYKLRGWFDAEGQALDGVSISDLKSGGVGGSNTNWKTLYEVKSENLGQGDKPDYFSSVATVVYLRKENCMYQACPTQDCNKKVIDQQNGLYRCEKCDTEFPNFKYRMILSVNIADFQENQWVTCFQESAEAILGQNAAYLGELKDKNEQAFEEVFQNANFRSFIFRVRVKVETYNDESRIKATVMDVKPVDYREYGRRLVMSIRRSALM
Replication protein A (RPA heterotrimer) (human), sequence (P15927 whole entry, chain 2 of 3): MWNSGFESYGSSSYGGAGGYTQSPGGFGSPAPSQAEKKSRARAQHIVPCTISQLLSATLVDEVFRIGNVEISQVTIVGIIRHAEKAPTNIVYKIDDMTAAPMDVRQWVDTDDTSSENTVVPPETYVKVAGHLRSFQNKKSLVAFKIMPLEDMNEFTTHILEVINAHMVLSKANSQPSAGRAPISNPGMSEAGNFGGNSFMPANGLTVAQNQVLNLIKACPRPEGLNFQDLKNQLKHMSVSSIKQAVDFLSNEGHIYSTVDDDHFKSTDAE
Replication protein A (RPA heterotrimer) (human), sequence (P35244 whole entry, chain 3 of 3): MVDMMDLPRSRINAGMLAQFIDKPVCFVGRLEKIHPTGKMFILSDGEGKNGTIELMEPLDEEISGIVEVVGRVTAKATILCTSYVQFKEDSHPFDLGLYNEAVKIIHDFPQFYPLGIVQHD

pHSG299 supercoiled plasmid: the binding signal was 500 (scale: fold lower affinity than RNA 501) and 33000 (scale: fold lower affinity than ssDNA 211).
